Data taken from US20090118184A1 (UNIVERSITY OF ROCHESTER, published 2009).
Changes are numbered by the printed parent chain.

Experiments:
[1] = target: T1, factor VIIIa A1/A3C1C2 dimer, Glu272Ala (human, UniProt P00451 20-391; P00451 1709-2351); assay: cell-based or functional assay
T1 chain 1: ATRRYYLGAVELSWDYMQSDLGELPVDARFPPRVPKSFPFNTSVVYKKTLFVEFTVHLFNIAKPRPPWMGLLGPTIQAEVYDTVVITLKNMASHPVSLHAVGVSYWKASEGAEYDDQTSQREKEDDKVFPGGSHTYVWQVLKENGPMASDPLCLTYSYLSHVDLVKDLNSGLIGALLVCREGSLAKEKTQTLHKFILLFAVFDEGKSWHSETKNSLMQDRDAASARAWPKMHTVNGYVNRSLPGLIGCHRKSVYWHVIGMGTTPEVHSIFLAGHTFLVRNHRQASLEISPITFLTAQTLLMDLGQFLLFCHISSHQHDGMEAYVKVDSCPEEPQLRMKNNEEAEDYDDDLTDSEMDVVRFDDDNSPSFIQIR
T1 chain 2: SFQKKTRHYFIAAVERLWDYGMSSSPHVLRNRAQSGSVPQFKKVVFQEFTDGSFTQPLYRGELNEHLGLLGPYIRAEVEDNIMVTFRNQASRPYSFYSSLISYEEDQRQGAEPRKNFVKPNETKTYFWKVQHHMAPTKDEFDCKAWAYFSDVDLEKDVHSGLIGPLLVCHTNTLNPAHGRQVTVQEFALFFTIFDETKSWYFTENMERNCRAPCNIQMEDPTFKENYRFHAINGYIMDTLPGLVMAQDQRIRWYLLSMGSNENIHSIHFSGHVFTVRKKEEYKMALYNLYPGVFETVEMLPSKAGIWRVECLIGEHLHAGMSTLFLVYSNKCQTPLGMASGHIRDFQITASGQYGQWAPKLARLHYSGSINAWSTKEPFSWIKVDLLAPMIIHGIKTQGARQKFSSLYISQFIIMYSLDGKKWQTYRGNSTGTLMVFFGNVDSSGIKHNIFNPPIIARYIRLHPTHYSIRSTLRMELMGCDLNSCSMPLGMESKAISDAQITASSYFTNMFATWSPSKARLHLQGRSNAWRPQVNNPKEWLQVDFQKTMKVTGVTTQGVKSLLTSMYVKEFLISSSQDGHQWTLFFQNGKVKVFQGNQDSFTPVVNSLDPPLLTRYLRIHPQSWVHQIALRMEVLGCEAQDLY

[2] = target: T2, factor VIIIa A1/A3C1C2 dimer, Glu1984Ala (human, UniProt P00451 20-391; P00451 1709-2351); assay: cell-based or functional assay
T2 sequence 1: T1 chain 1 with A272E
T2 sequence 2: T1 chain 2 with E295A

Factor VIIIa Decay relative to the WT value, Factor IXa absent [1]: 1.95 relative to WT | Factor VIIIa Decay relative to the WT value, Factor IXa present [1]: 1.06 relative to WT | Factor VIIIa Decay, Factor IXa absent [1]: 0.164 min⁻¹ | Factor VIIIa Decay, Factor IXa present [1]: 0.0163 min⁻¹ | Factor VIIIa Decay relative to the WT value, Factor IXa absent [2]: 0.29 relative to WT | Factor VIIIa Decay relative to the WT value, Factor IXa present [2]: 0.18 relative to WT | Factor VIIIa Decay, Factor IXa absent [2]: 0.0241 min⁻¹ | Factor VIIIa Decay, Factor IXa present [2]: 0.0027 min⁻¹
B1: factor VIIIa A2 subunit, wild type (other)
chain: SVAKKHPKTWVHYIAAEEEDWDYAPLVLAPDDRSYKSQYLNNGPQRIGRKYKKVRFMAYTDETFKTREAIQHESGILGPLLYGEVGDTLLIIFKNQASRPYNIYPHGITDVRPLYSRRLPKGVKHLKDFPILPGEIFKYKWTVTVEDGPTKSDPRCLTRYYSSFVNMERDLASGLIGPLLICYKESVDQRGNQIMSDKRNVILFSVFDENRSWYLTENIQRFLPNPAGVQLEDPEFQASNIMHSINGYVFDSLQLSVCLHEVAYWYILSIGAQTDFLSVFFSGYTFKHKMVYEDTLTLFPFSGETVFMSMENPGLWILGCHNSDFRNRGMTALLKVSSCDKNTGDYYEDSYEDISAYLLSKNNAIEPR
